Measurements published in article PMC3585964, “Tissue Inhibitor of Metalloproteinases-3 Peptides Inhibit Angiogenesis and Choroidal Neovascularization in Mice” (PLoS ONE, 2013).
“Also recorded” adds a separate entry of the source. Read-outs that look alike come from different tables or passages of the source. Ends that are not written are not given here. Peptide text beside a SMILES is read from it.

Experiments:
[1] = target: VEGFR-2 (KDR/Fc chimera) binding to VEGF (Homo sapiens, UniProt P35968); experiment: Competitive ELISA, binding of sVEGFR-2/Fc to immobilized VEGF
Chain of VEGFR-2 (KDR/Fc chimera) binding to VEGF (P35968 with tags, fused parts or gaps limits assumed): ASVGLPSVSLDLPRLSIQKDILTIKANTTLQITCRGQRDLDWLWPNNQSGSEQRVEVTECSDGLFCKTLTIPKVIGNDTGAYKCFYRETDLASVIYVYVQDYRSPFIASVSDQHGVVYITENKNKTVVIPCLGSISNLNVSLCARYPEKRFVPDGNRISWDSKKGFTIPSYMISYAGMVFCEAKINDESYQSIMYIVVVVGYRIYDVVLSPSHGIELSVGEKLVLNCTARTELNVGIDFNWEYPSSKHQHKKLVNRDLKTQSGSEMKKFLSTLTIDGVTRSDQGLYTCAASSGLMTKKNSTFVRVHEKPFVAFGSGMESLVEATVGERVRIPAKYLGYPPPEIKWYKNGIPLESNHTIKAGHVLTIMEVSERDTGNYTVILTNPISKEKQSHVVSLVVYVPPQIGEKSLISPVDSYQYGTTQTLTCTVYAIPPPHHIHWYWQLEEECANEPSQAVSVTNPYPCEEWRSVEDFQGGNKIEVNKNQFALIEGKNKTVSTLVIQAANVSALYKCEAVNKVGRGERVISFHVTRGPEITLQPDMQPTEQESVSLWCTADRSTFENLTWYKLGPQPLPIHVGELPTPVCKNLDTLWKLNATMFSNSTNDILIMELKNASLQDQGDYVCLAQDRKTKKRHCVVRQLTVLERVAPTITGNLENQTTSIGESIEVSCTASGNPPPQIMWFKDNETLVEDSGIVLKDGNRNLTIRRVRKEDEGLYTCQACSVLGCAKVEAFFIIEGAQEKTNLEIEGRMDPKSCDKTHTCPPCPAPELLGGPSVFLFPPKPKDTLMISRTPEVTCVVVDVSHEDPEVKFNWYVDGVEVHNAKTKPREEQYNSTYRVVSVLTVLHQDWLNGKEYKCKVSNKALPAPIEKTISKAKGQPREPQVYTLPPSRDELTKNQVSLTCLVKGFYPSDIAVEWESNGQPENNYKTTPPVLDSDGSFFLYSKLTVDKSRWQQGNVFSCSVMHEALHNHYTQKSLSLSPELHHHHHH
Procedure: (§1) 96 well EIA/RIA strip plates (COSTAR) were coated with 80 ng/ml recombinant VEGF overnight at 4°C, washed and blocked with blocking buffer (1% BSA and 5% sucrose) overnight at 4°C. Series of dilutions were prepared for recombinant proteins representing WT-TIMP-3, NT2:CT3 and N-T3 in PBS or synthetic peptides corresponding to T3-loop 5, T3-loop 6, T3-N or T3-tail peptides in 0.5 M Tris-HCl (pH 7.5). The diluents were mixed with 50 ng/ml recombinant human VEGFR-2 (KDR/Fc chimera, recombinant human VEGFR-1 (Flt-1)/Fc chimera (R&D Systems, Minneapolis, MN) or control human lgG (Sigma Aldrich, St Louis, MO). The mixtures were then added to the VEGF-coated well in a final volume of 100 µL in PBS and incubated for 2 hours at room temperature. Bound VEGFR-2 was detected by HRP-conjugated anti-human lgG(Fc specific) (1∶1000).

[2] = tested on: angiogenesis; VEGF binding to VEGFR-2; conditions: cited from earlier work
Text: Tissue inhibitors of metalloproteinases (TIMPs) constitute a family of four proteins (TIMP-1, TIMP-2, TIMP-3 and TIMP-4) that are endogenous inhibitors of […] and play a critical role in the maintenance of extracellular matrix (ECM) homeostasis. In general, all four TIMPs are broad-spectrum inhibitors of the MMP family, with some differences in specificity. […] Based on these studies we designed experiments t ... || Sorsby fundus dystrophy (SFD), an autosomal dominant, fully penetrant, degenerative disease of the macula, [25] is manifested by symptoms of night blindness or sudden loss of acuity, usually in the third to fourth decades of life due to submacular neovascularization, [27], [28], [29]. SFD is caused by specific mutations in the tissue inhibitor of metalloproteinases-3 (TIMP-3) gene, [31], [32], [33], [34], [35], [36], [37], most of which introduce an unpaired cysteine at the C-terminus of the protein. We have recently reported that S156C mutation in TI ...

[3] = tested on: VEGFR-1 (Flt-1)/Fc chimera binding to VEGF; experiment: Competitive ELISA, binding of sVEGFR-1/Fc to immobilized VEGF; design: species or system human; conditions: 50 ng/ml sVEGFR-1 (sFlt-1)
Procedure: as §1

[4] = read-out: IC50, inhibition of VEGF binding to sVEGFR-2/Fc chimera (recombinant proteins), competitive ELISA, 50 ng/ml human VEGFR-2/Fc, plate coated with 80 ng/ml VEGF, 2 h room temperature, proteins in PBS

Molecule: CC[C@H](C)[C@H](NC(=O)[C@H](CS)NC(=O)[C@H](C)NC(=O)[C@H](Cc1ccc(O)cc1)NC(=O)[C@H](Cc1c[nH]cn1)NC(=O)[C@H](CCCCN)NC(=O)[C@H](CO)NC(=O)[C@H](CCC(N)=O)NC(=O)[C@H](Cc1ccc(O)cc1)NC(=O)CNC(=O)[C@@H]1CCCN1C(=O)[C@H](Cc1ccc(O)cc1)NC(=O)CNC(=O)[C@H](Cc1ccccc1)NC(=O)[C@H](CC(N)=O)NC(=O)[C@H](CO)NC(=O)[C@H](CC(C)C)NC(=O)[C@H](CCSC)NC(=O)[C@H](CC(=O)O)NC(=O)[C@@H](NC(=O)[C@H](Cc1c[nH]c2ccccc12)NC(=O)[C@H](CC(C)C)NC(=O)[C@H](CS)NC(=O)[C@H](CCC(=O)O)NC(=O)[C@H](CC(N)=O)NC(=O)[C@@H](N)CCCCN)[C@@H](C)O)C(=O)N[C@@H](CCCNC(=N)N)C(=O)N[C@@H](CCC(N)=O)C(=O)N[C@@H](CCCCN)C(=O)NCC(=O)O [T3-loop 6] (H-KNECLWTDMLSNFGYPGYQSKHYACIRQKG-OH)
- IC50 [1]: 2 µM

Molecule: GYCSWYRGWAPPDKSIINATDP [T3-tail]
- IC50 [1]: 5 µM

B1: S156C mutation in TIMP-3: TIMP-3 with the S156C mutation (Sorsby fundus dystrophy) (protein, UniProt P35625 24-211, looked up, variant S156C)
Metalloproteinase inhibitor 3: CTCSPSHPQDAFCNSDIVIRAKVVGKKLVKEGPFGTLVYTIKQMKMYRGFTKMPHVQYIHTEASESLCGLKLEVNKYQYLLTGRVYDGKMYTGLCNFVERWDQLTLSQRKGLNYRYHLGCNCKIKSCYYLPCFVTSKNECLWTDMLSNFGYPGYQCKHYACIRQKGGYCSWYRGWAPPDKSIINATDP
- Effect of TIMP-3 mutation on angiogenesis (literature) ([2]; ref [18]): induces increased angiogenesis

B2: WT-TIMP-3: Full length, recombinant human TIMP-3 purified from stably transfected mouse myeloma cells (protein, UniProt P35625 1-211, looked up)
chain: MTPWLGLIVLLGSWSLGDWGAEACTCSPSHPQDAFCNSDIVIRAKVVGKKLVKEGPFGTLVYTIKQMKMYRGFTKMPHVQYIHTEASESLCGLKLEVNKYQYLLTGRVYDGKMYTGLCNFVERWDQLTLSQRKGLNYRYHLGCNCKIKSCYYLPCFVTSKNECLWTDMLSNFGYPGYQSKHYACIRQKGGYCSWYRGWAPPDKSIINATDP
modifications: full-length
notes: Full length, recombinant human TIMP-3 purified from stably transfected mouse myeloma cells
- Effect of recombinant proteins on VEGF binding to VEGFR-1 (in words) [3]: unable to block sVEGFR-1-VEGF complexes; also recorded: neither full length WT-TIMP-3 nor COOH-terminal TIMP-3 blocked the binding of VEGF to VEGFR1
- Effect of recombinant proteins on VEGF-VEGFR-2 complexes (in words) ([1]; competitive ELISA, 50 ng/ml sVEGFR-2, proteins in PBS): inhibit sVEGFR-2-VEGF complexes in a concentration-dependent manner; also recorded: markedly decreased
- IC50 [1, 4]: 0.041 µM
- Blocking of VEGF binding to VEGFR-2 / angiogenesis inhibition (literature) ([2]; independent of MMP inhibitory activity, ref [8]): potent angiogenesis inhibitor
- Inhibition of angiogenesis independent of MMP inhibition (literature) ([2]; ref [8], [21], [22]): Inhibition of angiogenesis

B3: NT2:CT3: NH2-terminal TIMP-2: COOH-terminal TIMP-3 chimera (residues 1–126 of TIMP-2 and residues 122–188 of TIMP-3) (protein)
chain: CSCSPVHPQQAFCNADVVIRAKAVSEKEVDSGNDIYGNPIKRIQYEIKQIKMFKGPEKDIEFIYTAPSSAVCGVSLDVGGKKEYLIAGKAEGDGKMHITLCDFIVPWDTLSTTQKKSLNHRYQMGCCKIKSCYYLPCFVTSKNECLWTDMLSNFGYPGYQSKHYACIRQKGGYCSWYRGWAPPDKSIINATDP
modifications: Limits are in mature numbering (TIMP-2 offset +26, TIMP-3 offset +23); Methods print TIMP-2 1-127 and Results print 1-126; the Methods limit i
- IC50 [1, 4]: 0.028 µM
